Assay results published in patent US20230071371A1 (Scripps Research, published 2023).
Read-outs that look alike come from different tables or passages of the source. Bridges are numbered along the chain shown (N, C = ends). Where no end group is shown, it is not given here. [ ]: non-standard residue; d: D form. NMeR = CN[C@@H](CCCNC(=N)N)C(=O)O; hArg = N=C(N)NCCCC[C@H](N)C(=O)O; β3hR = N=C(N)NCCC[C@H](N)CC(=O)O; staple K20 = not defined here; staple K4 = not defined here; Nle = CCCC[C@H](N)C(=O)O; L1 = not defined here; L3 = not defined here; L4 = not defined here; L5 = not defined here; Aib = CC(C)(N)C(=O)O

T1: GPR10 (UniProt P49683 1-370, limits assumed)
T1 sequence (looked up): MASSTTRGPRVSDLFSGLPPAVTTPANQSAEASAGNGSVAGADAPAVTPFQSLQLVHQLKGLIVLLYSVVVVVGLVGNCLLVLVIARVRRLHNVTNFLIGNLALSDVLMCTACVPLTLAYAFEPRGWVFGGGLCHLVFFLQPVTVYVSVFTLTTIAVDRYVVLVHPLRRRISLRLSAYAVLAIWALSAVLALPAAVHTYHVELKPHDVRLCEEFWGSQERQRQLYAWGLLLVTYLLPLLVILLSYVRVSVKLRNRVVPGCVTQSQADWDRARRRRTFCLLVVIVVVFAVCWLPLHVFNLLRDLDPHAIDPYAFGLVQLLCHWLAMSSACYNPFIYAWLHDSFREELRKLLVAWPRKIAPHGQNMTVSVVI


Key:
Assay in all cases: cell-based or functional assay
[1] = target: T1, GPR10
[2] = target: T1, GPR10; remark: listed apart in the source
[3] = target: human GLP-1R (human, UniProt P43220 24-463)

Binder	GPR10 EC50 [1] [nM]	GPR10 EC50 [2] [nM]	EC50 cAMP 0% FBS [3] [nM]
SRAHQHSMETRTPDCNPAWYTCRGIRPVGRF-NH2 (linker 15-22 via L5; reading uncertain) [Conjugate 244]	230		
SRAHQHSMETRTPDINPCWYTGRGCRPVGRF-NH2 (linker 18-25 via L4; reading uncertain) [Conjugate 249]	> 1000		
SRAHQCS[Nle]ETRTCDINPAWYTG[β3hR]GIRPVGRF-NH2 (linker 6-13 via L4; reading uncertain) [Conjugate 260]		60	
SRAHQCSMETRTCDINPAWYTGRGIRPVGRF-NH2 (linker 6-13 via L3; reading uncertain) [Conjugate 236]	13	13	
SRAHQCS[Nle]ETRTCDINPAWYTGRGIRPVG[hArg]F-NH2 (cysteine pairing not given here) [SEQ ID NO 100]		> 200	
SRAHQCSMETRTCDINPAWYTGRGIRPVGRF-NH2 (linker 6-13 via L1; reading uncertain) [Conjugate 226]	20	20	
SRAHQCS[Nle]ETRTCDINPAWYTGRGIRPVG[β3hR]F-NH2 (cysteine pairing not given here) [SEQ ID NO 101]		> 200	
SRAHQHSMETRTPDINPCWYTGRGCRPVGRF-NH2 (linker 18-25 via L1; reading uncertain) [Conjugate 231]	18		
SRAHQCS[Nle]ETRTCDINPAWYTG[NMeR]GIRPVGRF-NH2 (cysteine pairing not given here) [SEQ ID NO 99]		44	
SRAHQHSMETRTPDINPCWYTGRGCRPVGRF-NH2 (linker 18-25 via L5; reading uncertain) [Conjugate 250]	> 1000		
Y[Aib]EGTFTSDYSIYKDKQAA[Aib]KFKNWLKAGGPSSGAPPPS (linker 23-27 via staple K4; not fully specified; reading uncertain) [Conjugate 145]			61.4
SRAHQCS[Nle]ETRTCDINPAWYTG[β3hR]GIRPVGRF-NH2 (linker 6-13 via L5; reading uncertain) [Conjugate 264]		81	
SRAHQCS[Nle]ETRTCDINPAWYTGRGIRPVG[NMeR]F-NH2 (linker 6-13 via L4; reading uncertain) [Conjugate 262]		280	
SRAHQHSMETRTPDINPAWCTGRGIRCVGRF-NH2 (cysteine pairing not given here) [SEQ ID NO 96]	920		
SRAHQCSMETRTCDINPAWYTGRGIRPVGRF-NH2 (linker 6-13 via L5; reading uncertain) [Conjugate 238]	260	260	
SRAHQHSMETRTPDICPAWYTGCGIRPVGRF-NH2 (linker 16-23 via L3; reading uncertain) [Conjugate 245]	23		
SRAHQCS[Nle]ETRTCDINPAWYTG[NMeR]GIRPVGRF-NH2 (linker 6-13 via L4; reading uncertain) [Conjugate 261]		120	
SRAHQCS[Nle]ETRTCDINPAWYTGRGIRPVG[NMeR]F-NH2 (linker 6-13 via L3; reading uncertain) [Conjugate 258]		10	
SRAHQCSMETRTCDINPAWYTGRGIRPVGRF-NH2 (linker 6-13 via L4; reading uncertain) [Conjugate 237]	80	80	
SRAHQHSMETRTPDICPAWYTGCGIRPVGRF-NH2 (linker 16-23 via L4; reading uncertain) [Conjugate 246]	360		

Binder	GPR10 EC50 [1] [nM]	GPR10 EC50 [2] [nM]	EC50 cAMP 0% FBS [3] [nM]
SRAHQCS[Nle]ETRTCDINPAWYTGRGIRPVG[NMeR]F-NH2 (linker 6-13 via L1; reading uncertain) [Conjugate 254]		100	
SRAHQCS[Nle]ETRTCDINPAWYTG[β3hR]GIRPVGRF-NH2 (linker 6-13 via L3; reading uncertain) [Conjugate 256]		5.1	
SRAHQCS[Nle]ETRTCDINPAWYTG[NMeR]GIRPVGRF-NH2 (linker 6-13 via L1; reading uncertain) [Conjugate 253]		34	
SRAHQHSMETRTPDCNPAWYTCRGIRPVGRF-NH2 (linker 15-22 via L4; reading uncertain) [Conjugate 243]	80		
Y[Aib]EGTFTSDYSIYKDKQAA[Aib]KFKNWLKAGGPSSGAPPPS (linker 23-27 via staple K20; reading uncertain) [Conjugate 157]			16.4
SRAHQCS[Nle]ETRTCDINPAWYTG[NMeR]GIRPVGRF-NH2 (linker 6-13 via L3; reading uncertain) [Conjugate 257]		8.8	
SRAHQHSMETRTPDINPAWYTGRGIRPVGRF-NH2 [SEQ ID NO 107]	12	12	
SRAHQCS[Nle]ETRTCDINPAWYTG[NMeR]GIRPVGRF-NH2 (linker 6-13 via L5; reading uncertain) [Conjugate 265]		160	
SRAHQCS[Nle]ETRTCDINPAWYTG[β3hR]GIRPVGRF-NH2 (cysteine pairing not given here) [SEQ ID NO 98]		13	
SRAHQCS[Nle]ETRTCDINPAWYTGRGIRPVG[NMeR]F-NH2 (cysteine pairing not given here) [SEQ ID NO 102]		100	
SRAHQCS[Nle]ETRTCDINPAWYTGRGIRPVG[NMeR]F-NH2 (linker 6-13 via L5; reading uncertain) [Conjugate 266]		1100	
SRAHQCS[Nle]ETRTCDINPAWYTG[hArg]GIRPVGRF-NH2 (cysteine pairing not given here) [SEQ ID NO 97]		17	
SRAHQHSMETRTPDINPCWYTGRGCRPVGRF-NH2 (cysteine pairing not given here) [SEQ ID NO 95]	33		
SRAHQHSMETRTPDICPAWYTGCGIRPVGRF-NH2 (linker 16-23 via L1; reading uncertain) [Conjugate 230]	29		
SRAHQHSMETRTPDINPCWYTGRGCRPVGRF-NH2 (linker 18-25 via L3; reading uncertain) [Conjugate 248]	7.5		
SRAHQCSMETRTCDINPAWYTGRGIRPVGRF-NH2 (cysteine pairing not given here) [SEQ ID NO 90]	29	29	
SRAHQHSMETRTPDICPAWYTGCGIRPVGRF-NH2 (cysteine pairing not given here) [SEQ ID NO 94]	70		
SRAHQHSMETRTPDINPAWCTGRGIRCVGRF-NH2 (linker 20-27 via L1; reading uncertain) [Conjugate 232]	130		
SRAHQHSMETRTPDICPAWYTGCGIRPVGRF-NH2 (linker 16-23 via L5; reading uncertain) [Conjugate 247]	2800		
SRAHQCS[Nle]ETRTCDINPAWYTG[β3hR]GIRPVGRF-NH2 (linker 6-13 via L1; reading uncertain) [Conjugate 252]		16	
